Test results published in patent US7811992B2, “Anti-infarction molecules” (Stasys Technologies, Inc., priority 2002, dated 2010).
Where two headings read alike, the source gives them in different places. Square brackets hold non-standard residues; d marks the D form. Side chains are listed from the residue outwards. Ends that are not written are not given here. Peptide text beside a SMILES is read from it. * marks the point of attachment. Acetyl(1-adamantyl) = O=C(CC12CC3CC(CC(C3)C1)C2)*; Hyp = O=C(O)[C@@H]1C[C@@H](O)CN1; 2Thi = N[C@@H](Cc1cccs1)C(=O)O; Nicotinoyl = O=C(c1cccnc1)*; Cbz = O=C(OCc1ccccc1)*

Experiments:
[1] = biological target: T1, human angiotensin AT2 receptor (Homo sapiens, UniProt P50052); details: for Activity/inhibition ATII binding assay: compounds screened at 10 μM, % inhibition of binding at the AT2 receptor; for nH: reference data, Hill coefficient; for % Inhibition ATII receptor: screened at 10 μM; for inhibition at 10 µM: read-out: % Inhibition ATII receptor
T1 sequence (P50052 1-363): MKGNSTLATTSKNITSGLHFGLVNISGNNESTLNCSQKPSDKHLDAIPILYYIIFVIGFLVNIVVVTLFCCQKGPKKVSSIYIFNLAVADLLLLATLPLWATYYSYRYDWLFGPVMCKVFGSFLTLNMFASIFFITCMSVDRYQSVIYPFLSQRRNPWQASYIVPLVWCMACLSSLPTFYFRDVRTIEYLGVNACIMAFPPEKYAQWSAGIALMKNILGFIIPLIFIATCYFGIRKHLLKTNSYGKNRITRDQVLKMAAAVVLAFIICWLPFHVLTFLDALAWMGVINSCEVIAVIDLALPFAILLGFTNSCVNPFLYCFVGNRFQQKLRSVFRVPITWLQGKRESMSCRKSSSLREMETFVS
Procedure: HeLa cells stably transfected with a plasmid encoding the human angiotensin AT2 receptor were used to prepare membranes in modified Tris HCl pH 7.4 by standard techniques. […] Non-specific binding was estimated in the presence of 10 μM. […] Compounds were screened at 10 μM. The ATII binding studies were performed essentially like that disclosed in Whitebread, S. E. et al., Radioligand CGP42112A: a novel high affinity and high selective ligand for the characterization of angiotensin AT2 receptors.

Estrogen ERa = biological target: T2, Estrogen ERa (Homo sapiens, UniProt P03372); test: Receptor panel screen, ligand-receptor binding, FPAh 10 μM: Estrogen ERa
T2 sequence (P03372 1-595): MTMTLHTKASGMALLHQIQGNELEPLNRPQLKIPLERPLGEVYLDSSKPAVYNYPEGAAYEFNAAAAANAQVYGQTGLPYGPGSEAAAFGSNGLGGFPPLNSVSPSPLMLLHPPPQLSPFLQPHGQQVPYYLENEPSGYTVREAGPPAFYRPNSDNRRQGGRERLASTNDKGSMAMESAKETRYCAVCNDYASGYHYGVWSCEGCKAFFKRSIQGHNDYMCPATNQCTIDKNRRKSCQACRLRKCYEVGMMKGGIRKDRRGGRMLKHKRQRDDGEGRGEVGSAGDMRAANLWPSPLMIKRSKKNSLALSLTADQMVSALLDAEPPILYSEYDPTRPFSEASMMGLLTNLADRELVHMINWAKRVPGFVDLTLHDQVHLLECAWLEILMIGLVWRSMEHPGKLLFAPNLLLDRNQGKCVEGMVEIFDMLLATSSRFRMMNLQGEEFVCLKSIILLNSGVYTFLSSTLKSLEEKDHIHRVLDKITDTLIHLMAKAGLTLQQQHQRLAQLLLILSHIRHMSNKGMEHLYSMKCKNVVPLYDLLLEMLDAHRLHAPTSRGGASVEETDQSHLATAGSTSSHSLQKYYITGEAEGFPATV
Excerpt: (§1) For example, FPA was used in a screen of 150 receptors to determine which receptors FPA could interact with. One way of assessing FPA interactions is to look at the amount that FPA can modulate a given receptor relative to its natural ligand. Disclosed in tables 13 and 14 are ligand-receptor binding studies that are, for example, modulated by more than 20% (inhibition or excitation) by the human form of Fibrinopeptide-A (FPA-h).

[2] = test system: Inositol Triphosphate IP3; test: Receptor panel screen, ligand-receptor binding, FPAh 10 μM: Inositol Triphosphate IP3
Excerpt: as §1

[3] = biological target: T3, Thyrotropin Releasing Hormone (Homo sapiens, UniProt P34981); test: Receptor panel screen, ligand-receptor binding, FPAh 10 μM: Thyrotropin Releasing Hormone
T3 sequence (P34981 1-398): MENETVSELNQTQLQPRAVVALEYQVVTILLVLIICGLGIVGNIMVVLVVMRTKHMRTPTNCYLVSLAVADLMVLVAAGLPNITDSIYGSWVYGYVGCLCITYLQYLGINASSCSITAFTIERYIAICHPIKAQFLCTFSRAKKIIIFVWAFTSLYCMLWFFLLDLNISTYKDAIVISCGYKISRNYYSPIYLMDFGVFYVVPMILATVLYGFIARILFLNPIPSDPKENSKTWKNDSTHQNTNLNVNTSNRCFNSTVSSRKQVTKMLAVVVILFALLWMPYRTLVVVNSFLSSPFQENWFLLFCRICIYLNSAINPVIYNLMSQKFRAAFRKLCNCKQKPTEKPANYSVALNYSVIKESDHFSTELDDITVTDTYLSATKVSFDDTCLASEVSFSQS
Excerpt: as §1

Bradykinin B1 = biological target: T4, Bradykinin B1 (Homo sapiens, UniProt P46663); test: Receptor panel screen, ligand-receptor binding, FPAh 10 μM: Bradykinin B1
T4 sequence (P46663 1-353): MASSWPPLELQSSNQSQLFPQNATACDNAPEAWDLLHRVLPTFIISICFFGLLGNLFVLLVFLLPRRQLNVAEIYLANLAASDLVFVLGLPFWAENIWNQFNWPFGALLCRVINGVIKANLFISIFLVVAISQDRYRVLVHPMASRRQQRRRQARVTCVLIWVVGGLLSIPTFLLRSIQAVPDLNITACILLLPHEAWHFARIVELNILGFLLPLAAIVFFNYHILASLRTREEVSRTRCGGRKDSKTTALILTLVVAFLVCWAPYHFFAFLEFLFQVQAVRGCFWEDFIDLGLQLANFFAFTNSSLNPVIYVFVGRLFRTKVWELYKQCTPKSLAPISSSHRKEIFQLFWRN
Excerpt: as §1

[4] = test system: Vascular endothelial growth factor; test: Receptor panel screen, ligand-receptor binding, FPAh 10 μM: Vascular endothelial growth factor
Excerpt: as §1

Glutamate AMPA = test: Receptor panel screen, ligand-receptor binding, FPAh 10 μM: Glutamate AMPA
Excerpt: as §1

Serotonin 5-HT 2a = Serotonin 5-HT 2a (Homo sapiens, UniProt P28223); test: Receptor panel screen, ligand-receptor binding, FPAh 10 μM: Serotonin 5-HT 2a
Serotonin 5-HT 2a, sequence (P28223 whole entry): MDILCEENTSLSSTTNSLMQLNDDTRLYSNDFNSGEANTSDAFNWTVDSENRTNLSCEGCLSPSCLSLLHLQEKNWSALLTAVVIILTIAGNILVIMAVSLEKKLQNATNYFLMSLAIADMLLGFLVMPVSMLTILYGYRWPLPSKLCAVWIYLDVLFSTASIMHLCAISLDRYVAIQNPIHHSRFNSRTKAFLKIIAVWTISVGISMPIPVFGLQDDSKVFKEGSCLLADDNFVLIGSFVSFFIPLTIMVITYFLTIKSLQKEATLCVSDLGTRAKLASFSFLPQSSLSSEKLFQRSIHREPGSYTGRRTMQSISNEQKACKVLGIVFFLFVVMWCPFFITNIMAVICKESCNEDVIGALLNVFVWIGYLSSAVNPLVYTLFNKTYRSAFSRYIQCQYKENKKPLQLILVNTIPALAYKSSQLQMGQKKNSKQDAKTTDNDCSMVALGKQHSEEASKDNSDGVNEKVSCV
Excerpt: as §1

Potassium Channel [Ka] = test: Receptor panel screen, ligand-receptor binding, FPAh 10 μM: Potassium Channel [Ka]
Excerpt: as §1

Cholecystokinin = test: Receptor panel screen, ligand-receptor binding, FPAh 10 μM: Cholecystokinin
Excerpt: as §1

Molecule: N-Admantanecarbonyl-DArg0-HyP3, Thi5,8, DPhe7] Bradykinin
- Activity/inhibition ATII binding assay [1]: 63%

Molecule: CNCC(=O)N[C@@H](CCCN=C(N)N)C(=O)N[C@H](C(=O)N[C@@H](Cc1ccc(O)cc1)C(=O)N[C@H](C(=O)N[C@@H](Cc1cnc[nH]1)C(=O)N1CCC[C@H]1C(=O)N[C@@H](C)C(=O)O)C(C)C)C(C)C [Saralasin]
- nH [1]: 0.9

Molecule: VP059 (RPPGFS)
- % Inhibition ATII receptor [1]: −12%

Molecule: VP042 (XRPXGXSXXR; D-residues; non-natural residues)
- % Inhibition ATII receptor [1]: 29%

Molecule: (DArg-Arg-Pro-Hyp-Gly-Thi-Ser-DTic-Oic-Arg (XRPXGXSXXR; D-residues; non-natural residues) [Hoe 140, reference compound]
- Activity/inhibition ATII binding assay [1]: 29%

Molecule: PPGFSPFR [Bradykinin (2-9)]
- Activity/inhibition ATII binding assay [1]: −13%

Molecule: Arg-Pro-Pro-Gly-Phe-Ser-DPhe-Phe-Arg (RPPGFS[dF]FR) [DPhe7] Bradykinin]
- Activity/inhibition ATII binding assay [1]: 60 9%

Molecule: VP064 (XRPXGXSXXR; D-residues; non-natural residues)
- % Inhibition ATII receptor [1]: 70%

Molecule: VP043 (RPPGFS[dF]FR)
- % Inhibition ATII receptor [1]: 9%

Molecule: N=C(N)NCCC[C@H](NC(=O)[C@H](Cc1cccs1)NC(=O)[C@@H](Cc1ccccc1)NC(=O)[C@H](CO)NC(=O)[C@H](Cc1cccs1)NC(=O)CNC(=O)[C@@H]1CCCN1C(=O)[C@@H]1CCCN1C(=O)[C@@H](N)CCCNC(=N)N)C(=O)O [VP045] (H-RPPG[2Thi]S[dF][2Thi]R-OH)
- inhibition at 10 µM [1]: 53%

Molecule: ADSGE GDFLAEGGGVR (ADSGEGDFLAEGGGVR) [FPA-h, synthesized human Fibrinopeptide-A]
- Inhibited (Estrogen ERa): 33%
- Inhibited [2]: 33%
- Inhibited [3]: 23%
- Inhibited (Bradykinin B1): 24%
- Stimulated [4]: 22%
- Stimulated (Glutamate AMPA): 30%
- Stimulated (Serotonin 5-HT 2a): 21%
- Inhibited (Potassium Channel [Ka]): 25%
- Inhibited (Cholecystokinin): 33%

Molecule: N=C(N)NCCC[C@H](NC(=O)[C@H](Cc1cccs1)NC(=O)[C@@H](Cc1ccccc1)NC(=O)[C@H](CO)NC(=O)[C@H](Cc1cccs1)NC(=O)CNC(=O)[C@@H]1C[C@@H](O)CN1C(=O)[C@@H]1CCCN1C(=O)[C@H](CCCNC(=N)N)NC(=O)[C@@H](CCCNC(=N)N)NC(=O)CC12CC3CC(CC(C3)C1)C2)C(=O)O [VP046] ({Acetyl(1-adamantyl)}-[dR]RP[Hyp]G[2Thi]S[dF][2Thi]R-OH)
- inhibition at 10 µM [1]: 61%

Molecule: NC(N)=NCCC[C@H](NC(=O)[C@H](Cc1ccccc1)NC(=O)[C@@H]1CCCN1C(=O)[C@H](CO)NC(=O)[C@H](Cc1ccccc1)NC(=O)CNC(=O)[C@@H]1CCCN1C(=O)[C@@H]1CCCN1C(=O)[C@@H](N)CCCN=C(N)N)C(=O)O [Bradykinin]
- Activity/inhibition ATII binding assay ([1]; 10 µM): 12%

Molecule: VP052 (RPPGFSPYR)
- % Inhibition ATII receptor [1]: −1%

Molecule: RPPGFS [Bradykinin (1-6)]
- Activity/inhibition ATII binding assay [1]: −12%

Molecule: CC[C@H](C)[C@H](NC(=O)[C@@H]1CCCN1C(=O)[C@H](Cc1c[nH]cn1)NC(=O)[C@@H](NC(=O)[C@H](Cc1ccc(O)cc1)NC(=O)[C@@H](NC(=O)[C@H](CCCNC(=N)N)NC(=O)CNC)C(C)C)[C@@H](C)CC)C(=O)O [[Sar^1, Ile^8] Angiotensin II]
- nH [1]: 1.0

Molecule: Arg-Pro-Pro-Gly-Thi-Ser-DPhe-Thi-Arg (RPPG[2Thi]S[dF][2Thi]R) [[Thi5,8,DPhe7] Bradykinin]
- Activity/inhibition ATII binding assay [1]: 53%

Molecule: DArg-Arg-Pro-Hyp-Gly-Igl-Ser-Dlgl-Oic-Arg (XRPXGXSXXR; D-residues; non-natural residues) [B9430]
- Activity/inhibition ATII binding assay [1]: 70%

Molecule: N-Adamantaneacetyl-DArg-Arg-Pro-Hyp-Gly-Thi-Ser-DPhe-Thi-Arg
- Activity/inhibition ATII binding assay [1]: 61%

Molecule: VP062 (PPGFSPFR)
- % Inhibition ATII receptor [1]: −13%

Molecule: PPGFSP [Bradykinin (2-7)]
- Activity/inhibition ATII binding assay [1]: −6%

Molecule: VP057 (RPP)
- % Inhibition ATII receptor [1]: −2%

Molecule: VP061 (PPGFSP)
- % Inhibition ATII receptor [1]: −6%

Molecule: DArg-Arg-Pro-Hyp-Gly-Thi-Ser-Dlgl Oic-Arg (XRPXGXSXXR; D-residues; non-natural residues) [B9340]
- Activity/inhibition ATII binding assay [1]: 35%

Molecule: VP063 (XRPXGXSXXR; D-residues; non-natural residues)
- % Inhibition ATII receptor [1]: 35%

Molecule: Arg-Pro-Pro-Gly-Phe (RPPGF) [Bradykinin (1-5)]
- Activity/inhibition ATII binding assay [1]: 1%

Molecule: Arg-Pro-Pro (RPP) [Bradykinin (1-3)]
- Activity/inhibition ATII binding assay [1]: −2%

Molecule: VP058 (RPPGF)
- % Inhibition ATII receptor [1]: 1%

Molecule: CC[C@H](C)[C@H](NC(=O)[C@@H]1CCCN1C(=O)[C@H](Cc1c[nH]cn1)NC(=O)[C@H](CCCCNC(=O)[C@H](CCCNC(=N)N)NC(=O)OCc1ccccc1)NC(=O)[C@H](Cc1ccc(O)cc1)NC(=O)c1cccnc1)C(=O)O [CGP-42112A, nicotinic acid-Tyr-(N-benzoylcarbonyl-Arg)Lys-His-Pro-Ile-OH, reference compound] (Nicotinoyl-YK([Arg-Cbz])HPI-OH)
- nH [1]: 1.1
